The results in this text go back to patent US20070224212A1.

Assay [1] addresses (Biotin-CCIZN23)3. Kind of assay: BIAcore SPR; D5 IgG immobilized on CM5 chip, (biotin-CCIZN23)3 in solution.
Assay [2] deals with HIV-1 gp41 (strain NL4-3) (HIV-1 strain NL4-3). In words: cell-based or functional assay.
The target in assay [3] is HIV-1 gp41 (strain BaL) (HIV-1 strain BaL). Kind of assay: cell-based or functional assay.
In assay [4] the target is HIV-1 gp41 (strain HXB2) (HIV-1 strain HXB2) (UniProt P04578). In words: cell-based or functional assay.
For assay [5], the target named is HIV-1 gp41 (strain MN-1) (HIV-1 strain MN-1) (UniProt P05877). Kind of assay: cell-based or functional assay.
Assay [6] concerns the target HIV-1 gp41 (strain 89.6) (HIV-1 strain 89.6). In words: cell-based or functional assay.
Assay [7] concerns the target Biotin-IZN36. Kind of assay: BIAcore SPR; D5 IgG immobilized on CM5 chip, biotin-IZN36 in solution.
The target in assay [8] is (Biotin-CCIZN23)3. In words: BIAcore SPR; (biotin-CCIZN23)3 immobilized on SA chip, D5-scFv in solution. A general note: SPR reads the build-up and loss of mass on a sensor chip optically.
Assay [9] deals with D5 IgG. In words: AlphaScreen competition: peptide titrated against the binding of D5-IgG to biotinylated-IQN17.

As a reminder, the Kd is the free concentration of one partner at which half of the binding sites on the other are occupied at equilibrium, for simple one-to-one binding. A high value points to weaker binding. Regarding D5 IgG (antibody), the Kd turned out to be 0.22 nM in [1] and 0.17 nM in assay [7]. The IC50, single-cycle HIV infectivity assay stood at 226 nM in assay [2]; 93 nM in assay [3]; 310 nM in assay [4]; 393 nM in assay [5]; 1750 nM in assay [6]. The substance also returned an IC50, HIV single cycle infectivity assay, HIV-HXB2 in assay [4] of 1350 nM. Further, the IC50, HIV-1 single-cycle infectivity assay, strain HXB2 (FIG. 17A) in assay [4] came to 144 µg/mL.
In assay [8], D5-scFv showed a Kd of 0.2 nM.
As for IZN17 L565M (peptide), the IC50 (read off the curve) in assay [9] was 10 nM.
Substance IZN17 Q567R (peptide) registered an IC50 (read off the curve) in assay [9] of 10 nM.
Regarding T-20 (peptide), the IC50, single-cycle HIV infectivity assay in assay [3] is 2.4 nM; in assay [4], 5.3 nM; in assay [6] it was 29 nM.
